The source of these data is PMC10350561 (MicrobiologyOpen, 2023).

The assay has as its target staphylococcal superantigen-like protein 1 (Staphylococcus aureus, strain of the …, UniProt A0A0H3KAV3). Nature of the assay: ELISA. The settings on record: one partner purified. (In general: An ELISA detects its analyte on a solid surface through an enzyme-linked reagent.)

staphylococcal superantigen-like protein 1, sequence (A0A0H3KAV3 31-226): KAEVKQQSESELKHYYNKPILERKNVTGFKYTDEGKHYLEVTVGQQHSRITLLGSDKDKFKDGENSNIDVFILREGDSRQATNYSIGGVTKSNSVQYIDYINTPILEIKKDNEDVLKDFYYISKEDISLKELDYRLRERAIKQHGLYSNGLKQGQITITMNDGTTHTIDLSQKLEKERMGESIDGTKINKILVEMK

B1: scFv-99 (scFv-ALP fusion) (scFv, V domains shown)
VH: EVQLLESGGGLVQPGGSLRLSCAASGFTFSNYSMHWVRQAPGKGLEWVSVIDYNSGYTDYADSVKGRFTISRDNSKNTLYLQMNSLRAEDTAVYYCARGIFDYWGQGTLVTVSS
VL: EIVLTQSPGTLSLSPGERATLSCRASQSVSSSALAWYQQKPGQAPRLLIYGASSRATGVPDRFSGSGSGTDFTLTISRLEPEDFAVYYCQQSSSTPWTFGQGTKVEIK
As to B1, the binding result was “binds”.
